Reference: patent publication US20180346592A1
Where a chain is given by its changes, count along the chain named.

B1: clone GS002 (scFv, V domains shown)
VH: EVQLLESGGGLVQPGGSLRLSCAASGFTFSGYSMSWVRQAPGKGLEWVSSISPGGSSTYYADSVKGRFTISRDNSKNTLYLQMSSLRAEDTAVYYCARYRVWHMTTGDYYSNAMDVWGQGTLVTVSS
VL: QSVLTQPPSASGTPGQRVTISCTGSSSNIGSNAVSWYQQLPGTAPKLLIYDDNKRPSGVLDRFSGSKSGTSASLAISGLRSEDEADYYCGTWDDSLSGYVFGGGTKLTVLG
B2: clone GS006 (scFv, V domains shown)
VH: EVQLLESGGGLVQPGGSLRLSCAASGFTFSGYSMSWVRQAPGKGLEWVSAISPGGGSKYYADSVRGRFTVSRDNSKNTLYLQMNSLRAEDTAVYYCARYRVQKSAKNVYSSNGMDVWGQGTLVTVSS
VL: QSVLTQPPPASGTPGQRVTISCSGSSSNIGNNAVNWYQQLPGTAPKLLIYYDSNRPSGVPDRFSGSKSGTSASLAISGLRSEDEADYYCGAWDSSLSAYVFGGGTKLTVLG
B3: clone GS010 (scFv, V domains shown)
VH: EVQLLESGGGLVQPGGSLRLSCAASGFTFSNYSMSWVRQAPGKGLEWVSVISPSSGSIYYADSVKGRFTISRDNSKNTLYLQMNSLRAEDTAVYYCARYRVRQLKHTRSYADAMDVWGQGTLVTVSS
VL: QSVLTQPPSASGAPGQRVTISCSGSSSNIGSNAVSWYQQLPGTAPKLLIYANSHRPSGVPDRFSGSKSGTSASLAISGLRSEDETDYYCASWDSSLSGYVFGGGTKLTVLG
B4: clone GS014 (scFv, V domains shown)
VH: EVQLLESGGGLVQPGGSLRLSCAASGFTFSNYAMSWVRQAPGKGLEWVSVISPNSGSNTYYADSVKGRFTISRDNSKNTLYLQMNSLRAEDTAVYYCARPRILRRRVDHSYSYAMDVWGQGTLVTVSS
VL: B1 VL with S31N, A33Y, D51S, D52N, N53S, K54H, L60P, D94Y, F101L
B5: clone GS004 (scFv, V domains shown)
VH: EVQLLESGGGLVQPGGSLRLSCAVSGFTFSNYSMSWVRQAPGKGLEWVSAISPGSSNKYYADSVKGRFTISRDNSKNTLYLQMNSLRAEDTAVYYCARYRVWAHSASSSYSNAMDVWGQGTLVTVSS
VL: B2 VL with P9S, A33D, N35S, Y51S, N54Q, A91S, S94D, S97N, A98G
B6: clone GS015 (scFv, V domains shown)
VH: EVQLLESGGGLAQPGGSLRLSCAASGFTFSDYSMSWVRQAPGKGLEWVSAISPDGGSKYYADSVKGRFTISRDNSKNTLYLQMNSLRAEDTAVYYCARFRVIKLRAGWYSANGMDVWGQGTLVTVSS
VL: B2 VL with P9S, A33D, N35S, D52N, N54K, S94D, S97N, A98G
B7: clone GN328 (scFv, V domains shown)
VH: EVQLVESGGGLVQPGGSLRVSCAASGFTFSTAWMDWVRQAPGKGLEWVANINPDGSEKHYVDSVKGRFTVSRDNAKNSVYLHMNNLRAEDTAVYYCSKALDYWGQGTTVTVSS
VL: DIQMTQSPSTLSASVGDRVTITCRASQNINTWLAWYQQKPGKAPEVLIYEASSLESGVPPRFSGSGSGTEFTLTISSLQPDDSATYYCQQYNTYSPTFGQGTKLEIKR
B8: clone GX247 (scFv, V domains shown)
VH: QVQLVQSGAEVKKPGASVKVSCKASGYTFTSYYMHWVRQAPGQGLEWMGIINPSGGSTSYAQKFQGRVTMTRDTSTSTVYMELSSLRSEDTAVYYCARTRKGSGYSYGYGMDVWGQGTTVTVSS
VL: SYELTQPPSVSVSPGQTASITCSGDKLGNKYVSWYQQKPGQSPVLVIYQDNKRPSGIPERFSGSNSGNTATLTISGTQAMDEAGYYCQTWDSSVVFGGGTKLTVLG
B9: clone GN414 (scFv, V domains shown)
VH: QVQLVQSGAEVKKPGASVKVSCKASGYTFSTYGITWVRQAPGQGLEWMGRITPNNGVTDYAQKFQGRVTMTRDTSISTAYMELSSLRSDDSAVYYCAREIGSSSWKLLDPWGQGTMVTVSS
VL: QAVLTQPSSVSVSPGQTASITCTGNSNNVGYEGAAWVQQYQGHPPKLLSDRNHNRPSGISERFSASRSGNTASLTITGLQSEDEADYYCSAWDSSLSEWVSGGGTKLTVLG
B10: clone GX184 (scFv, V domains shown)
VH: QLQLQESGPGLVKPSETLSLTCAVSGGSISSSNNYWGWIRQPPGKGLEWIGSIFYSGSTYYNPSLKSRVTISVDTSKNQFSLKLSSVTAADTAVYYCARLPTGTPGFYFDYWGQGTLVTVSS
VL: SYELTQPPSVSKGLRQTATLTCTGNSNNVGNQGAAWLQQHQGHPPKLLSYRNNNRPSGISERFSASRSGNTASLTITGLQPEDEADYYCSAWDSSLSAWVFGGGTKLTVLG
B11: clone GX263 (scFv, V domains shown)
VH: EVQLVESGGGLVKPGGSLRLSCAASGFTFSSYSMNWVRQAPGKGLEWVSSISSSSSYIYYADSVKGRFTISRDNAKNSLYLQMNSLRAEDTAVYYCARVTPYYYYGMDVWGQGTTVTVSS
VL: QSVVTQPPSVSAAPGQKVTISCSGSSSNIGNNYVSWYQQLPGTAPKLLIYDSNKRPPGIPDRFSGSKSGTSATLGITGLQTGDEADYYCGAWDSSLSAVVFGGGTKLTVLG

molecular target: GPC3 on the surface of hepatic cancer cell lines (SK-Hep1-GPC3 transfectant, HepG2, Huh7, Hep3B, SNU398) (human) (UniProt P51654); assay: FACS, HepG2 cells, 1 ug antibody; upper right panel (Synthetic library)

Row | Mean, FL2-H | Binder
1 | 4.71 | B1
2 | 3.41 | B2
3 | 4.72 | B3
4 | 5.66 | B4
5 | 4.38 | B5
6 | 3.64 | B6

molecular target: GPC3 on the surface of hepatic cancer cell lines (SK-Hep1-GPC3 transfectant, HepG2, Huh7, Hep3B, SNU398) (human) (UniProt P51654); assay: FACS, HepG2 cells, 1 ug antibody; lower left panel (Human naive library)

Row | Mean, FL2-H | Binder
7 | 4.24 | B7
8 | 5.53 | B8
9 | 6.9 | B9
10 | 5.39 | B10
11 | 6.06 | B11

molecular target: GPC3 on the surface of hepatic cancer cell lines (SK-Hep1-GPC3 transfectant, HepG2, Huh7, Hep3B, SNU398) (human) (UniProt P51654); assay: FACS, SK-Hep1-GPC3 #9 cells, 1 ug antibody; lower left panel

Row | Mean, FL2-H | Binder
12 | 4.17 | B7
13 | 6.07 | B8
14 | 3.75 | B9
15 | 3.99 | B10
16 | 3.71 | B11

molecular target: GPC3 on the surface of hepatic cancer cell lines (SK-Hep1-GPC3 transfectant, HepG2, Huh7, Hep3B, SNU398) (human) (UniProt P51654); assay: FACS, SK-Hep1-GPC3 #9 cells, 1 ug antibody; upper right panel

Row | Mean, FL2-H | Binder
17 | 4.17 | B1
18 | 3.65 | B2
19 | 4.53 | B3
20 | 4.39 | B4
21 | 4.11 | B5
22 | 5.34 | B6
